From paper PMC9765439, “Systems-Wide Dissection of Organic Acid Assimilation in Pseudomonas aeruginosa Reveals a Novel Path To Underground Metabolism” (mBio, 2022)

Tests used:
Test in all cases: purified protein
Assay type in all cases: biochemical, Pseudomonas aeruginosa
[1] = substrate: CC(=O)SCCNC(=O)CCNC(=O)[C@H](O)C(C)(C)COP(=O)(O)OP(=O)(O)OC[C@H]1O[C@@H](n2cnc3c(N)ncnc32)[C@H](O)[C@@H]1OP(=O)(O)O; conditions: 0.5 mM oxaloacetate, 50 mM HEPES pH 7.5, 0.1 M KCl, 0.54 M glycerol, 37 °C
[2] = substrate: CCC(=O)SCCNC(=O)CCNC(=O)[C@H](O)C(C)(C)COP(=O)(O)OP(=O)(O)OC[C@H]1O[C@@H](n2cnc3c(N)ncnc32)[C@H](O)[C@@H]1OP(=O)(O)O; conditions: 0.5 mM oxaloacetate, 50 mM HEPES pH 7.5, 0.1 M KCl, 0.54 M glycerol, 37 °C
[3] = substrate: O=C(O)CC(=O)C(=O)O; conditions: 0.5 mM propionyl-CoA, 50 mM HEPES pH 7.5, 0.1 M KCl, 0.54 M glycerol, 37 °C

B1: PrpCPa (2-methylcitrate synthase, 2-MCS) (Pseudomonas aeruginosa PAO1) (protein)
chain: MAEAKVLSGAGLRGQVAGQTALSTVGQEGAGLTYRGYDVRDLAAAAIFEEVAYLLLYGELPNKQQLDAYLKKLQGQRDLPQALKEVLERIPKDAHPMDVMRTGASVLGTLEPELSFDQQRDVADRLLAAFPAIMTYWYRFTHEGQRIDCNSDEPTIGGHFLALLHGKKPSELHVKVMNVSLILYAEHEFNASTFTARVCASTLSDLYSCVTGAIGSLRGPLHGGANEAAMELIERFSSPQEATAELLKMLERKDKIMGFGHAIYKDSDPRNEVIKGWSKQLADEVGDKVLFAVSEAIDKTMWEQKKLFPNADFYHASAYHFMGIPTKLFTPIFVCSRTSGWTAHVFEQRANNRIIRPSAEYTGVEQRAFVPLEQR
notes: pET-19m, N-terminal TEV-cleavable His6 tag, cut; E. coli host; homodimer
Km [1]: 28 µM | kcat/Km [1]: 114000 M⁻¹ s⁻¹ | Km [2]: 45 µM | Km [3]: 15.65 µM | kcat/Km [3]: 228000 M⁻¹ s⁻¹
